Measurements published in publication PMC2288786 (BMC Structural Biology, 2008).

What was measured:
Details in all cases: both partners purified
[1] = biological target: T1, calmodulin (recombinant, from the expression construct pETCM with vertebrate CaM cDNA) ( (vertebrate CaM cDNA), UniProt P0DP23 2-149); test: ITC; 1.0 mM MBP peptide injected into 0.10 mM CaM; 50 mM HEPES pH 7.5, 20 mM CaCl2; +35°C; fits: one site (peaks 2-7) and 4 sequential sites (peaks 2-20)
[2] = biological target: T1, calmodulin (recombinant, from the …); test: SPR; Biacore 3000; CaM immobilised by amine coupling (4000 RU); peptide 2.5-200 μM injected; 10 mM HEPES pH 7.5, 150 mM NaCl, 4 mM CaCl2, 0.005% P-20; 30 μl/min; two-state conformational change model; also 2-site model on equilibrium RU
[3] = biological target: T1, calmodulin (recombinant, from the …); test: ITC; 1.0 mM MBP peptide injected into 0.10 mM CaM; 50 mM HEPES pH 7.5, 20 mM CaCl2; +40°C; fits: one site (peaks 2-7) and 4 sequential sites (peaks 2-20)
[4] = biological target: T1, calmodulin (recombinant, from the …); test: ITC; 1.0 mM MBP peptide injected into 0.10 mM CaM; 50 mM HEPES pH 7.5, 20 mM CaCl2; +25°C; fits: one site (peaks 2-7) and 4 sequential sites (peaks 2-20)
[5] = biological target: T1, calmodulin (recombinant, from the …); test: ITC; 1.0 mM MBP peptide injected into 0.10 mM CaM; 50 mM HEPES pH 7.5, 20 mM CaCl2; +30°C; fits: one site (peaks 2-7) and 4 sequential sites (peaks 2-20)
[6] = biological target: T1, calmodulin (recombinant, from the …); test: small-angle X-ray scattering (SAXS); CaM in solution with and without a 5-fold molar excess of the peptide, 5.4 to 140.0 mg/ml; X33 beamline, DESY

Kd [1]: 1.9 µM
Kd of the first binding event (4-site model) [1]: 1 µM
dH [1]: -2.38 ± 0.1 kcal/mol
dH of the first binding event (4-site model) [1]: -2.34 ± 0.03 kcal/mol
stoichiometry N [1]: 0.63 ± 0.02
Kd [2]: 58 µM
Kd of the high-affinity binding event (2-site model, equilibrium RU) [2]: ~10 µM
Kd of the low-affinity binding event (2-site model, equilibrium RU) [2]: ~1000 µM
Kd [3]: 25.9 µM
Kd of the first binding event (4-site model) [3]: 1.7 µM
dH [3]: -1.09 ± 0.97 kcal/mol
dH of the first binding event (4-site model) [3]: -0.73 ± 0.05 kcal/mol
stoichiometry N [3]: 0.7 ± 0.17
Kd [4]: 3.4 µM
Kd of the first binding event (4-site model) [4]: 1 µM
dH [4]: -1.47 ± 0.13 kcal/mol
dH of the first binding event (4-site model) [4]: -1.44 ± 0.04 kcal/mol
stoichiometry N [4]: 0.83 ± 0.23
Kd [5]: 2.3 µM
Kd of the first binding event (4-site model) [5]: 1.1 µM
dH [5]: -2.11 ± 0.06 kcal/mol
dH of the first binding event (4-site model) [5]: -2.07 ± 0.02 kcal/mol
stoichiometry N [5]: 0.67 ± 0.02
stoichiometry N [6]: 1
B1: MBP peptide HKGFKGVDAQGTLSKIFKL, residues 138-156 of the human MBP 18.5 kDa isoform (peptide)
peptide: HKGFKGVDAQGTLSKIFKL
notes: myelin basic protein, human, 18.5-kDa isoform, residues 138-156; also called the peptide; myelin peptide; source: synthetic peptide, 95% purity; bought: Genemed Synthesis
